Experiment [1] deals with T1, NylCp2-G^122Y^130 alpha subunit (D122G/H130Y) (Arthrobacter, UniProt Q79F77 1-266, D122G | H130Y).
T1 construct: NylCp2 alpha subunit with D122G and H130Y; also called α subunit of NylCp2-G^122Y^130; source: E. coli JM109, purified with the beta subunit as the active enzyme
T1 sequence (looked up): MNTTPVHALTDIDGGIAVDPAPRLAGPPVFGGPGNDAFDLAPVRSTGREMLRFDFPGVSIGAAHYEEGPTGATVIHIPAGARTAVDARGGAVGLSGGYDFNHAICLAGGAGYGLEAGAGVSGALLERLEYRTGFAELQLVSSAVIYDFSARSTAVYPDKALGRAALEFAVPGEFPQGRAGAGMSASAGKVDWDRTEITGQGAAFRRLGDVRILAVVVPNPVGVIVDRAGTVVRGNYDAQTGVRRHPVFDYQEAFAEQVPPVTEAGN
The experiment is described as follows: crystal structure; sitting-drop vapor diffusion, ammonium sulfate, 0.1 M HEPES pH 7.5, 0.2 M NaCl, 25% glycerol; space group C222_(1), two molecules (A/B dimer) in the asymmetric unit, tetramer by the crystallographic two-fold axis. The conditions noted are these: both partners purified.

Experiment [2] has as its target T2, NylCp2-K^122 alpha subunit (D122K) (Arthrobacter, UniProt Q79F77 1-266, D122K).
T2 construct: NylCp2 alpha subunit with D122K; also called α subunit of NylCp2-K^122; source: E. coli JM109, purified with the beta subunit as the active enzyme
T2 sequence (looked up): T1 sequence (looked up) with G122K, Y130H
Described as above. The conditions noted are these: both partners purified.

We go through 1 molecule from article PMC6021441, “Structural basis of the correct subunit assembly, aggregation, and intracellular degradation of nylon hydrolase” (Scientific Reports, 2018).

Substitutions are numbered along the chain they refer to.

B1: NylCp2 beta subunit (9 kDa) (domain or fragment, Arthrobacter, UniProt Q79F77 267-355, looked up)
chain: TTISAIVTNVRMSPVELNQFAKQVHSSMHRGIQPFHTDMDGDTLFAVTTDEIDLPTTPGSSRGRLSVNATALGAIASEVMWDAVLEAGK
notes: NylCp2, beta subunit made by autocleavage of the 355-residue precursor between Asn266 and Thr267; the same in the wild type and in the mutants crystallised here (all their substitutions lie in the alpha subunit); also called β subunit; source: E. coli JM109, purified with the alpha subunit as the active enzyme
Consider B1, for which the binding result in experiment [1] and in experiment [2] was “binds” throughout.
